# In patent US8865657B2, “Compositions and methods for inactivating or suppressing inflammatory cells” (New York University, priority 2005, dated 2014):
# B1: Lactoferrin: lactoferrin (LF; from bovine colostrum), another LRP-1 ligand (protein, UniProt P24627 20-708, looked up)
# Lactotransferrin: APRKNVRWCTISQPEWFKCRRWQWRMKKLGAPSITCVRRAFALECIRAIAEKKADAVTLDGGMVFEAGRDPYKLRPVAAEIYGTKESPQTHYYAVAVVKKGSNFQLDQLQGRKSCHTGLGRSAGWIIPMGILRPYLSWTESLEPLQGAVAKFFSASCVPCIDRQAYPNLCQLCKGEGENQCACSSREPYFGYSGAFKCLQDGAGDVAFVKETTVFENLPEKADRDQYELLCLNNSRAPVDAFKECHLAQVPSHAVVARSVDGKEDLIWKLLSKAQEKFGKNKSRSFQLFGSPPGQRDLLFKDSALGFLRIPSKVDSALYLGSRYLTTLKNLRETAEEVKARYTRVVWCAVGPEEQKKCQQWSQQSGQNVTCATASTTDDCIVLVLKGEADALNLDGGYIYTAGKCGLVPVLAENRKSSKHSSLDCVLRPTEGYLAVAVVKKANEGLTWNSLKDKKSCHTAVDRTAGWNIPMGLIVNQTGSCAFDEFFSQSCAPGADPKSRLCALCAGDDQGLDKCVPNSKEKYYGYTGAFRCLAEDVGDVAFVKNDTVWENTNGESTADWAKNLNREDFRLLCLDGTRKPVTEAQSCHLAVAPNHAVVSRSDRAAHVKQVLLHQQALFGKNGKNCPDKFCLFKSETKNLLFNDNTECLAKLGGRPTYEEYLGTEYVTAIANLKKCSTSPLLEACAFLTR
# B2: RAP: Recombinant human RAP, universal inhibitor of ligand binding to LRP-1 (protein, UniProt P30533 35-357, looked up)
# Alpha-2-macroglobulin …: YSREKNQPKPSPKRESGEEFRMEKLNQLWEKAQRLHLPPVRLAELHADLKIQERDELAWKKLKLDGLDEDGEKEARLIRNLNVILAKYGLDGKKDARQVTSNSLSGTQEDGLDDPRLEKLWHKAKTSGKFSGEELDKLWREFLHHKEKVHEYNVLLETLSRTEEIHENVISPSDLSDIKGSVLHSRHTELKEKLRSINQGLDRLRRVSHQGYSTEAEFEEPRVIDLWDLAQSANLTDKELEAFREELKHFEAKIEKHNHYQKQLEIAHEKLRHAESVGDGERVSRSREKHALLEGRTKELGYTVKKHLQDLSGRISRARHNEL
# Assays:
# HepG2 cells = test: cAMP radioimmunoassay, intracellular cAMP in HepG2 cells; assay type: cell-based, human
# Procedure: (§1) Cell culture. […] HepG2 cells were used on day 3 after plating.
# (§2) Cell treatment. […] Role of calcium and cyclic AMP. […] J Immunol 174: 2981-2989). […] IBMX was dissolved in dimethyl sulphoxide (DMSO).
# (§3) cAMP radioimmunoassay. For cAMP determination, liver cell cultures were incubated in culture medium without FCS at 37° C. for 0-90 min. The cultures were then placed on ice, and the reaction was stopped by aspiration of the incubation medium followed by the addition of 1 ml of ice cold 65% (vol/vol) ethanol. The cells were scraped into Eppendorf tubes and centrifuged at 10000 g for 10 min at 4° C. The supernatants were dried in SC110 Speedvac Concentrator (Savant, Farmingdale, N.Y.) at room temperature, and the dried extracts were dissolved in assay buffer for cAMP determination with cAMP [^125I] Direct Biotrak Assay from Amersham Biosciences (Piscataway, N.J.), according to the instructions of the manufacturer. Samples were analyzed with a Beckman LS 6000 scintillation counter. The cAMP level in each sample was normalized to the protein concentration and expressed as fmol/μg of protein. Ethanol-precipitated cell pellets were diluted with 0.15 M NaOH and the protein concentration was measured with the Micro BCA Protein Assay Kit (Pierce Chemical Co., Rockford, Ill.) according to manufacturer's instructions.
# Liver endothelial cells = test: cAMP radioimmunoassay, intracellular cAMP in liver endothelial cells; assay type: cell-based, rat
# Procedure: (§4) Liver cell isolation. […] The nonparenchymal cell-containing supernatant was saved.
# as §1, §2, §3
# Hepatocytes = test: cAMP radioimmunoassay, intracellular cAMP in hepatocytes; assay type: cell-based, rat
# Procedure: as §4, §1, §2, §3
# Kupffer cells [1] = test: cAMP radioimmunoassay, intracellular cAMP in Kupffer cells; assay type: cell-based, rat; details: for effect on cAMP level, agent alone: RAP 500 nM alone, lactoferrin 100 nM
# Procedure: as §4, §1, §2, §3
# Kupffer cells [2] = test: Inositol-1,4,5-trisphosphate (IP3) assay in Kupffer cells; assay type: cell-based, rat; details: data not shown
# Procedure: as §4, §1
# Inositol-1,4,5-trisphosphate (IP3) assay. Intracellular IP3 levels were measured with a IP3 [^3H] Biotrak Assay (Amersham Biosciences, Piscataway, N.J.). Liver cells (3.0×10^6 per well) were incubated for 0, 30, 60, 120 sec with 100 nM CSP in RPMI-1640 containing 10 mM LiCI. The plates were then placed on ice, and the reaction was stopped by aspiration of the incubation medium followed by the addition of 20% ice-cold perchloric acid. After incubation on ice for 20 min, the cells were scraped into Eppendorf tubes. The precipitated protein was removed by centrifugation at 10000 g for 15 min at 4° C. The supernatant was neutralized to pH 7.5 by titrating with ice-cold 1.5 M KOH containing 60 mM HEPES buffer. The precipitated KClO4 was removed by centrifugation at 5000 g for 15 min at 4° C. Radioactivity in the supernatant was measured with a Beckman LS 6000 scintillation counter.
Molecule,"cAMP (HepG2 cells; HepG2 cells, 100 nM lactoferrin, 30 min at 37° C., mean±S.E.) [fmol/μg protein]",effect on cAMP concentration (HepG2 cells; human hepatoma cell line HepG2),"cAMP (Liver endothelial cells; Liver endothelial cells, 100 nM lactoferrin, 30 min at 37° C., mean±S.E.) [fmol/μg protein]",effect on cAMP concentration (Liver endothelial cells; endothelial cells),"cAMP (Hepatocytes; Hepatocytes, 100 nM lactoferrin, 30 min at 37° C., mean±S.E.) [fmol/μg protein]",effect on cAMP concentration (Hepatocytes; hepatocytes),"cAMP (Kupffer cells [1]; Kupffer cells, 100 nM lactoferrin, 30 min at 37° C., serum-free RPMI-1640, mean±S.E.) [fmol/μg protein]","effect on cAMP level, agent alone (Kupffer cells [1]; Kupffer cells)","effect on IP3, agent alone (Kupffer cells [2]; RAP alone)",effect on the CSP-induced IP3 increase (Kupffer cells [2]; preincubation 10 min with 500 nM RAP before CSP),"effect on the CSP-induced generation of cAMP (Kupffer cells [1]; added 10 min before 50 nM CSP (30 min), RAP 500 nM)"
B1,6.50 ± 0.07,no significant effect,5.58 ± 0.30,no significant effect,2.61 ± 0.09,no significant effect,14.10 ± 2.10,no significant effect,–,–,–
B2,–,–,–,–,–,–,–,had no effect,had no effect,prevented this increase,blocked
